Experimental data published in publication PMC9352680, “A comprehensive thermodynamic model for RNA binding by the Saccharomyces cerevisiae Pumilio protein PUF4”.

T1: PUF4 RNA-binding domain (Saccharomyces cerevisiae, UniProt P25339 537-888)
T1 sequence: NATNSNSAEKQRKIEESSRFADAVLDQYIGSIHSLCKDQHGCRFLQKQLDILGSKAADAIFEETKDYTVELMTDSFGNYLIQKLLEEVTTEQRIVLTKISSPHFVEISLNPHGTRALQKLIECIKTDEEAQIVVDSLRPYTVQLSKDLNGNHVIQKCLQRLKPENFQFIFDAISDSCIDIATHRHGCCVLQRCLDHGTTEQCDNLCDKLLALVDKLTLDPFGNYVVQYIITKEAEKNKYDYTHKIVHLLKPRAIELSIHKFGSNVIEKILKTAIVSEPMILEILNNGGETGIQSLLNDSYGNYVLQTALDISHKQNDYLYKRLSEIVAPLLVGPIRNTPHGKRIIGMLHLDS


Each binder was assayed against T1, PUF4 RNA-binding domain (assay: Mg; RNA-MaP; 20 mM Na-HEPES pH 7.4, 30 mM KOAc, 0.75 mM MgCl2, 0.1% Tween-20, 5% glycerol, 0.1 mg/mL BSA, 2 mM DTT; 25 C; 0.0125-409.6 nM protein). Conditions: tags: N-His6-TEV cleaved; C-SNAP kept, Cy3B-labelled; label: tethered on chip by stalled RNA polymerase.

In order of rising Kd:
1. UCUCUUUGUACUAUUUCUCUU (ssRNA) [Ic_S1_P4E.1_K4.1_C4.1_H4.1_A4.1_[T5C]_[A6T]_[T7A]_F4.1_[A9T]_T4.1]  9.22 nM
2. UCUCUUUGUACAGUUUCUCUU (ssRNA) [Ic_S1_P4E.1_K4.1_C4.1_H4.1_A4.1_[T5C]_[T7G]_F4.1_[A9T]_T4.1]  13.3 nM
3. UCUCUUUGUACAGUGUCUCUU (ssRNA) [Ic_S1_P4E.1_K4.1_C4.1_H4.1_A4.1_[T5C]_[T7G]_F4.1_[A9G]_T4.1]  16.5 nM
4. UCUCUUUGUACAGUCUCUCUU (ssRNA) [Ic_S1_P4E.1_K4.1_C4.1_H4.1_A4.1_[T5C]_[T7G]_F4.1_[A9C]_T4.1]  17 nM
5. UCUCUUUGUACCUAUUCUCUU (ssRNA) [Ic_S1_P4E.1_K4.1_C4.1_H4.1_A4.1_[T5C]_[A6C]_F4.1_[T8A]_[A9T]_T4.1]  24.6 nM
6. UCUCUUUGUACCUUGUCUCUU (ssRNA) [Ic_S1_P4E.1_K4.1_C4.1_H4.1_A4.1_[T5C]_[A6C]_F4.1_[A9G]_T4.1]  27.3 nM
7. UCUCUUUGUACUCUGUCUCUU (ssRNA) [Ic_S1_P4E.1_K4.1_C4.1_H4.1_A4.1_[T5C]_[A6T]_[T7C]_F4.1_[A9G]_T4.1]  30.5 nM
8. UCUCUUUGUACUCUUUCUCUU (ssRNA) [Ic_S1_P4E.1_K4.1_C4.1_H4.1_A4.1_[T5C]_[A6T]_[T7C]_F4.1_[A9T]_T4.1]  33.7 nM
9. UCUCUUUGUACCUUUUCUCUU (ssRNA) [Ic_S1_P4E.1_K4.1_C4.1_H4.1_A4.1_[T5C]_[A6C]_F4.1_[A9T]_T4.1]  34.8 nM
10. UCUCUUUGUACAGCAUCUCUU (ssRNA) [Ic_S1_P4E.1_K4.1_C4.1_H4.1_A4.1_[T5C]_[T7G]_F4.1_[T8C]_T4.1]  38.5 nM
11. UCUCUUUGUACUUGUUCUCUU (ssRNA) [Ic_S1_P4E.1_K4.1_C4.1_H4.1_A4.1_[T5C]_[A6T]_F4.1_[T8G]_[A9T]_T4.1]  51.9 nM
12. UCUCUUUGUAUGUAUCUCUU (ssRNA) [Ic_S1_P3E.1_K3.1_C3.1_H3.1_A3.1_[A6G]_F3.1_T3.1]  66.5 nM
13. UCUCUUUGUACAGCUUCUCUU (ssRNA) [Ic_S1_P4E.1_K4.1_C4.1_H4.1_A4.1_[T5C]_[T7G]_F4.1_[T8C]_[A9T]_T4.1]  78.3 nM
14. UCUCUUUGUACCAAUUCUCUU (ssRNA) [Ic_S1_P4E.1_K4.1_C4.1_H4.1_A4.1_[T5C]_[A6C]_[T7A]_F4.1_[T8A]_[A9T]_T4.1]  103 nM
15. UCUCUUUGUACUACAUCUCUU (ssRNA) [Ic_S1_P4E.1_K4.1_C4.1_H4.1_A4.1_[T5C]_[A6T]_[T7A]_F4.1_[T8C]_T4.1]  140 nM
16. UCUCUUUGUACACGCUCUCUU (ssRNA) [Ic_S1_P4E.1_K4.1_C4.1_H4.1_A4.1_[T5C]_[T7C]_F4.1_[T8G]_[A9C]_T4.1]  145 nM
17. UCUCUUUGUGUAAAUCUCUU (ssRNA) [Ib_S1_P3E.1_K3.1_C3.1_H3.1_[A4G]_A3.1_F3.1_[T7A]_T3.1]  202 nM
18. UCUCUUUGUACUCCUUCUCUU (ssRNA) [Ic_S1_P4E.1_K4.1_C4.1_H4.1_A4.1_[T5C]_[A6T]_[T7C]_F4.1_[T8C]_[A9T]_T4.1]  407 nM
19. UCUCUUUGUACUUGAUCUCUU (ssRNA) [Ic_S1_P4E.1_K4.1_C4.1_H4.1_A4.1_[T5C]_[A6T]_F4.1_[T8G]_T4.1]  465 nM
20. UCUCUUUGUACUCCCUCUCUU (ssRNA) [Ic_S1_P4E.1_K4.1_C4.1_H4.1_A4.1_[T5C]_[A6T]_[T7C]_F4.1_[T8C]_[A9C]_T4.1]  508 nM
21. UCUCUUUGUACCUCCUCUCUU (ssRNA) [Ic_S1_P4E.1_K4.1_C4.1_H4.1_A4.1_[T5C]_[A6C]_F4.1_[T8C]_[A9C]_T4.1]  570 nM
22. UCUCUUUGUACCUCGUCUCUU (ssRNA) [Ic_S1_P4E.1_K4.1_C4.1_H4.1_A4.1_[T5C]_[A6C]_F4.1_[T8C]_[A9G]_T4.1]  575 nM
23. UCUCUUUGUACCUCUUCUCUU (ssRNA) [Ic_S1_P4E.1_K4.1_C4.1_H4.1_A4.1_[T5C]_[A6C]_F4.1_[T8C]_[A9T]_T4.1]  587 nM
24. UCUCUUUGUACUUGGUCUCUU (ssRNA) [Ic_S1_P4E.1_K4.1_C4.1_H4.1_A4.1_[T5C]_[A6T]_F4.1_[T8G]_[A9G]_T4.1]  623 nM
25. UCUCUUUGUACUGCCUCUCUU (ssRNA) [Ic_S1_P4E.1_K4.1_C4.1_H4.1_A4.1_[T5C]_[A6T]_[T7G]_F4.1_[T8C]_[A9C]_T4.1]  684 nM
26. UCUCUUUGUACUCAGUCUCUU (ssRNA) [Ic_S1_P4E.1_K4.1_C4.1_H4.1_A4.1_[T5C]_[A6T]_[T7C]_F4.1_[T8A]_[A9G]_T4.1]  738 nM
27. UCUCUUUGUACCAAGUCUCUU (ssRNA) [Ic_S1_P4E.1_K4.1_C4.1_H4.1_A4.1_[T5C]_[A6C]_[T7A]_F4.1_[T8A]_[A9G]_T4.1]  755 nM
28. UCUCUUCGUAUAUUUCUCUU (ssRNA) [Ib_S1_P3E.1_K3.1_C3.1_H3.1_[T1C]_A3.1_F3.1_[A8T]_T3.1]  830 nM
29. UCUCUUUGUACUCGCUCUCUU (ssRNA) [Ic_S1_P4E.1_K4.1_C4.1_H4.1_A4.1_[T5C]_[A6T]_[T7C]_F4.1_[T8G]_[A9C]_T4.1]  972 nM
30. UCUCUUAGUAUAUUUCUCUU (ssRNA) [Ib_S1_P3E.1_K3.1_C3.1_H3.1_[T1A]_A3.1_F3.1_[A8T]_T3.1]  1220 nM
31. UCUCUUGGUAUAUUUCUCUU (ssRNA) [Ib_S1_P3E.1_K3.1_C3.1_H3.1_[T1G]_A3.1_F3.1_[A8T]_T3.1]  1250 nM
32. UCUCUUUGUACUGCGUCUCUU (ssRNA) [Ic_S1_P4E.1_K4.1_C4.1_H4.1_A4.1_[T5C]_[A6T]_[T7G]_F4.1_[T8C]_[A9G]_T4.1]  1280 nM
